Reference: PMC6733935, “A convenient and efficient total solid-phase synthesis of DOTA-functionalized tumor-targeting peptides for PET imaging of cancer” (EJNMMI Research, 2019)
Numbered stars: 1 amine (or outer) side, 2 acyl side, 3 side chain; on linkers, the order of the positions; unused ones are H or OH. Square brackets hold non-standard residues; d marks the D form. Peptide text beside a SMILES is read from it. * marks the point of attachment. DOTA = O=C(O)CN1CCN(CC(=O)O)CCN(CC(=O)*)CCN(CC(=O)O)CC1; Cha = N[C@@H](CC1CCCCC1)C(=O)O; X1 = O=C(CCC(=O)[*:2])CN[*:1]; Nle = CCCC[C@H](N)C(=O)O

What was measured:
[1] = molecular target: T1, BN/GRP receptor-positive MDA-MB-231 human breast cancer cells (Homo sapiens, UniProt P30550); assay: Saturation binding assay on MDA-MB-231 cells; details: n = 3-5 experiments
T1 construct: BN/GRP receptor-positive MDA-MB-231, MCF7, T47D human breast cancer, and PC3 human prostate cancer lines; host or cells: MDA-MB-231, MCF7, T47D (human breast cancer), PC3 (human prostate cancer); intact cells
Protocol: (§1) The cell binding of ^68Ga-radiolabeled peptides into BN/GRP receptor-positive MDA-MB-231, MCF7, T47D human breast cancer, and PC3 human prostate cancer lines (American Type Culture Collection, Rockville, MD, USA) was performed according to the method described previously. In brief, ∼ 300,000 cells (in 300 μL in low-serum media) were incubated with various amounts of radiopeptides, ranging between 0.1 and 25 nM of peptide (prepared from the serial dilutions of HPLC-purified radiopeptides), in duplicate for 60 min at room temperature. The initial concentrations of ^68Ga-labeled peptides were determined according to a well-established HPLC technique with simultaneous detection by UV absorbance. As the amount of BN peptide in the reaction mixture was too small to be detected by UV absorption at 220 nm, the radioactive peptide chromatograms from the HPLC analysis were compared (with UV chromatograms) with those of known concentrations of the corresponding nonradioactive peptides for the mass determination. Incubation was terminated by dilution with cold saline (300 μL) and the cells were pelleted by centrifugation. The cell pellets was then rapidly washed with cold saline to remove any unbound peptide and centrifuged to collect supernatants. Radioactivity in the cell pellet and the washings was measured in a γ-counter. Non-specific binding was determined in the presence of ~ 200-fold molar excess of unlabeled BN peptide. Specific binding is calculated by subtracting the non-specifically bound radioactivity from that of the total binding. The dissociation constant (Kd) was calculated using a plot of cell bound activity versus the concentration of the radioligand using GraphPad Prism software (GraphPad Software Inc., San Diego, CA, USA).

MDA-MB-231 tumors = assay: in vivo; format: in vivo, nude mice; details: for Uptake in Tumor: nude mice with MDA-MB-231 tumors, mean ± SD, n = 3-5
Protocol: BN/GRP receptor-positive MDA-MB-231 and PC3 cell lines (American Type Culture Collection, Rockville, USA) were grown as monolayers at 37 °C in a humidified atmosphere containing RPMI-1640 culture media with 10% fetal bovine serum (FBS) in tissue culture flasks. Twenty-four hours prior to conducting the tumor implantation, the media was replaced with RPMI-1640/10% FBS. The cells were grown to 80-90% confluency and harvested by trypsinization. After centrifugation, about 50 million cells were suspended in 1 mL media for implantation into mice. To prepare cells for inoculation, MDA-MB-231 or PC3 cancer cells with media were centrifuged, the media decanted, and the cell pellet was mixed with phosphate-buffered saline (PBS) to reach a concentration of approximately 5 million cells per 100 μL PBS. Human MDA-MB-231 breast cancer xenografts female mouse models were used for in vivo tumor-targeting experiments. For the implantation of tumor xenografts, approximately five million MDA-MB-231 cells in suspension of 100 μL sterile PBS were injected subcutaneously into the left thigh of each mouse. Tumors were allowed to grow for 4-6 weeks by which tumors had reached weights of 200-300 mg. After sufficient growth of tumors, animals were injected with 20-30 μCi of the radiotracers and the animals were sacrificed at specified time points. The uptake of ^68Ga-radiolabeled peptides in the tumors and other major body organs was calculated by γ-counting as described above.

[2] = molecular target: T2, BN/GRP receptor-positive MCF7 human breast cancer cells (Homo sapiens, UniProt P30550); assay: Saturation binding assay on MCF7 cells; details: n = 3-5 experiments
T2 construct: BN/GRP receptor-positive MDA-MB-231, MCF7, T47D human breast cancer, and PC3 human prostate cancer lines; host or cells: MDA-MB-231, MCF7, T47D (human breast cancer), PC3 (human prostate cancer); intact cells
Protocol: as §1

in vivo = assay: in vivo; parameters: species or system Balb/c mice; details: Balb/c, mouse, iv
Protocol: Approval for the animal protocol used in this study was obtained from the Institutional Animal Care and Use Committee. Animal studies were conducted according to the international regulations governing the safe and proper use of laboratory animals. In vivo biodistribution were performed on healthy Balb/c mice (n = 3–5 in each group, body weight 19–22 g) at 1 and 2 h after intravenous injection of the HPLC-purified radiopeptide (100 μL, 15–20 μCi, total peptide dose ~ 20 ng) via the lateral tail vein. The mice were sacrificed by cervical dislocation at specified time points and blood samples were withdrawn with a syringe from the heart. Major organs such as lungs, stomach, spleen, pancreas, intestines, liver, kidneys, etc. were isolated, weighed, and radioactivity in each organs and tissues were measured using a γ-scintillation counter. Uptake of radioactivity in the tissues and organs was expressed as the percent injected dose per gram (% ID/g) of tissue/organ, which was calculated by comparison with standard solutions representing 10% of the injected dose per animal. For the clearance studies, radioactivity in the urine with bladder and feces is expressed as the percent of the injected dose per tissue (% ID). Values are expressed as mean ± SD for a group of 3-5 animals at each time point.

[3] = molecular target: T3, BN/GRP receptor-positive PC3 human prostate cancer cells (Homo sapiens, UniProt P30550); assay: Saturation binding assay on PC3 cells; details: n = 3-5 experiments
T3 construct: BN/GRP receptor-positive MDA-MB-231, MCF7, T47D human breast cancer, and PC3 human prostate cancer lines; host or cells: MDA-MB-231, MCF7, T47D (human breast cancer), PC3 (human prostate cancer); intact cells
Protocol: as §1

[4] = molecular target: T4, BN/GRP receptor-positive T47D human breast cancer cells (Homo sapiens, UniProt P30550); assay: Saturation binding assay on T47D cells; details: n = 3-5 experiments
T4 construct: BN/GRP receptor-positive MDA-MB-231, MCF7, T47D human breast cancer, and PC3 human prostate cancer lines; host or cells: MDA-MB-231, MCF7, T47D (human breast cancer), PC3 (human prostate cancer); intact cells
Protocol: as §1

[5] = ~300,000 cells, 0.1-25 nM radiopeptide, 60 min, room temperature, mean ± SD
[6] = total radioactivity, %ID excreted in Feces
[7] = total radioactivity, Uptake in Blood
[8] = total radioactivity, Uptake in Bone
[9] = total radioactivity, Uptake in Intestines (measured without their contents)
[10] = total radioactivity, Uptake in Kidneys
[11] = total radioactivity, Uptake in Pancreas
[12] = total radioactivity, Uptake in Spleen
[13] = total radioactivity, Uptake in Stomach

Bmax (apparent number of binding sites per cell) ([1]; SD < 15%): 1.02 × 10^5 sites/cell
Kd [1, 5]: 15.1 ± 3.12 nM
Bmax (apparent number of binding sites per cell) ([2]; SD < 15%): 2.11 × 10^5 sites/cell
Kd [2, 5]: 13.7 ± 2.32 nM
Bmax (apparent number of binding sites per cell) ([3]; SD < 15%): 2.12 × 10^5 sites/cell
Kd [3, 5]: 9.7 ± 2.01 nM
Bmax (apparent number of binding sites per cell) ([4]; SD < 15%): 9.90 × 10^4 sites/cell
Kd [4, 5]: 15.6 ± 3.47 nM
SMILES: CCCC[C@H](NC(=O)[C@H](Cc1c[nH]cn1)NC(=O)[C@H](CC1CCCCC1)NC(=O)[C@@H](NC(=O)[C@H](C)NC(=O)[C@H](Cc1c[nH]c2ccccc12)NC(=O)[C@H](CCC(N)=O)NC(=O)[C@H](CS)NC(=O)CNC(=O)CNC(=O)CCC(=O)CNC(=O)CN1CCN(CC(=O)O)CCN(CC(=O)O)CCN(CC(=O)O)CC1)C(C)C)C(=O)N[C@@H](CCSC)C(N)=O [^68Ga-DOTA-ALA-BN Cyclen, metal not drawn] ({DOTA}-[X1]GGCQWAV[Cha]H[Nle]M-NH2)
Uptake in Spleen (MDA-MB-231 tumors; female, nude, mouse, in vivo, 2 h): 0.17 ± 0.02 % ID/g
Uptake in Tumor (MDA-MB-231 tumors; 1 h p.i.): 1.82 ± 0.26 % ID/g
Uptake in Tumor (MDA-MB-231 tumors; 2 h p.i.): 0.84 ± 0.13 % ID/g
Uptake in Lungs (in vivo; 1 h): 1.39 ± 0.30 %ID/g
%ID excreted in Urine (in vivo; 2 h): 46.0 ± 9.12 %ID
Uptake in Liver (in vivo; 2 h): 1.75 ± 0.26 %ID/g
Uptake in Lungs (in vivo; 2 h): 0.98 ± 0.23 %ID/g
dose excreted at 1 h (in vivo; [6]): 1.07 ± 0.17%
dose excreted at 2 h (in vivo; [6]): 0.91 ± 0.14%
dose excreted at 1 h (in vivo; total radioactivity, %ID excreted in Urine): 53 ± 6.8%
tissue uptake at 1 h (in vivo; [7]): 0.8 ± 0.16 %ID/g
tissue uptake at 2 h (in vivo; [7]): 0.51 ± 0.12 %ID/g
tissue uptake at 1 h (in vivo; [8]): 0.24 ± 0.04 %ID/g
tissue uptake at 2 h (in vivo; [8]): 0.15 ± 0.02 %ID/g
tissue uptake at 1 h (in vivo; [9]): 0.88 ± 0.15 %ID/g
tissue uptake at 2 h (in vivo; [9]): 0.73 ± 0.12 %ID/g
tissue uptake at 1 h (in vivo; [10]): 5.89 ± 1 %ID/g
tissue uptake at 2 h (in vivo; [10]): 3.05 ± 0.41 %ID/g
tissue uptake at 1 h (in vivo; total radioactivity, Uptake in Liver): 2.3 ± 0.37 %ID/g
tissue uptake at 1 h (in vivo; [11]): 1.54 ± 0.31 %ID/g
tissue uptake at 2 h (in vivo; [11]): 0.89 ± 0.12 %ID/g
tissue uptake at 1 h (in vivo; [12]): 0.1 ± 0.01 %ID/g
tissue uptake at 2 h (in vivo; [12]): 0.08 %ID/g
tissue uptake at 1 h (in vivo; [13]): 1.5 ± 0.37 %ID/g
tissue uptake at 2 h (in vivo; [13]): 0.44 ± 0.1 %ID/g
